Values joined by “and” are separate entries in the source; they are usually repeats but may differ in a detail not shown here. Equal entries are not always repeated.
Tests used:
α1AAR [1] = target: T1, α1AAR (Homo sapiens, UniProt P35348); assay: Glo-sensor cAMP signaling assay with engineered Gsq protein in HEK293T cells
T1 sequence (P35348 1-466): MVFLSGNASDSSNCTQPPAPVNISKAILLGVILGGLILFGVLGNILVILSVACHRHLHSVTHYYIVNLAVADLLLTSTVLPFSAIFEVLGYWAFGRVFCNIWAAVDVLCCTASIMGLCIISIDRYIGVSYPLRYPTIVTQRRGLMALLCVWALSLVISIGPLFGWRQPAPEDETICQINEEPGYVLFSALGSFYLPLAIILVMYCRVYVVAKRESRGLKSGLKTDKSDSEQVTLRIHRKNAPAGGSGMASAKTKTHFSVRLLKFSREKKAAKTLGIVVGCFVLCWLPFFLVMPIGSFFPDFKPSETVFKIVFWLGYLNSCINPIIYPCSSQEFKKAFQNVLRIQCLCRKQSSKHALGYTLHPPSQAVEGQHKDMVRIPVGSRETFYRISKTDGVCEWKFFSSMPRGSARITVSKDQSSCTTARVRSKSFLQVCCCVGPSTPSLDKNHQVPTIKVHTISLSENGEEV
Procedure: In brief, pGloSensor™−22F plasmid, receptor plasmid, and Gsq plasmid were transfected into HEK293T cells. At 24 h after transfection, the cells were switched into a CO2-Independent Medium (Gibco) and incubated with GloSensor^TM cAMP reagent. The mixture was then transferred to a 96-well white plate. The 96-well plate is placed at 37 °C in the dark for 1 h, then placed at room temperature in the dark for 1 h before use. […] The result curves were calculated and fitted by GraphPad Prism 9.

α1AAR [2] = target: T1, α1AAR
α1AAR [3] = target: T2, α1AAR (Homo sapiens, UniProt P35348); assay: [3H]prazosin radioligand binding, Sf9 membranes
T2 sequence (P35348 1-370): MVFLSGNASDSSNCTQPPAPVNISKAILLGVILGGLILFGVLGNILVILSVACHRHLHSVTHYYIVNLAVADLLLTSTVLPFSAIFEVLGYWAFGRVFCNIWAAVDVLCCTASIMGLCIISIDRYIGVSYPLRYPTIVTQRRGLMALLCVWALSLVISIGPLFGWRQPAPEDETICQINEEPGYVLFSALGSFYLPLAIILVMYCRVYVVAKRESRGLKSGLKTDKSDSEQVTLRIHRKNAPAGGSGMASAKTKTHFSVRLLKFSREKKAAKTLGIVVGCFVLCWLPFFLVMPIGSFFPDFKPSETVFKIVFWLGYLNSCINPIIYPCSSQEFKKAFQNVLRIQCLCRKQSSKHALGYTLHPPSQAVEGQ
Procedure: After centrifugation, the pellet was homogenized in binding buffer and used as the membrane fraction in binding assays. […] Receptors were incubated for 1 h at room temperature with various concentrations of ligand in a total volume of 100 µl. After the reaction, the mixture was trapped on Whatman GF/B glass filters. Bound and free radioligands were separated by washing with ice-cold binding buffer. Radioactivity was measured on a MicroBeta2 liquid scintillation counter (PerkinElmer).

B1: Nb29: synthetic nanobody (single domain antibody) that binds the extracellular vestibule of α1AAR, preferentially oxymetazoline-bound (antibody, V domains shown)
VH: QVQLQESGGGLVQAGGSLRLSCAASGNISAHWKMGWYRQAPGKEREFVAGIGYANTNYADSVKGRFTISRDNAKNTVYLQMNSLKPEDTAVYYCAAYSYYRDHSYWGQGTQVTVSS
agonist activity on its own (α1AAR [1]): no agonist activity
effect on maximum efficacy of α1AAR activation (α1AAR [1]): slightly reduces
α1AAR activation (Noradrenaline %) (α1AAR [1]; Nb29 alone Log[M] -4): 8.574% and 8.426% and 7.756%
α1AAR activation (Noradrenaline %) (α1AAR [1]; Nb29 alone Log[M] -5): 10.7076% and 10.0868% and 10.3298%
α1AAR activation (Noradrenaline %) (α1AAR [1]; Nb29 alone Log[M] -6): 8.0538% and 8.0467% and 7.523%
α1AAR activation (Noradrenaline %) (α1AAR [1]; Nb29 alone Log[M] -7): 5.836% and 5.21% and 5.469%
α1AAR activation (Noradrenaline %) (α1AAR [1]; Nb29 alone Log[M] -8): 4.832% and 4.868% and 5.077%
α1AAR activation (Noradrenaline %) (α1AAR [1]; Nb29 alone Log[M] -9): 4.7489% and 4.768% and 4.504%
α1AAR activation (Noradrenaline %) (α1AAR [1]; Nb29 alone Log[M] -10): 4.612% and 4.823% and 4.852%
α1AAR activation (Noradrenaline %) (α1AAR [1]; Nb29 alone Log[M] -11): 4.776% and 4.958% and 4.729%
Ki (α1AAR [2]): 4.9 µM
[3H]prazosin binding (α1AAR [3]; Nb29 Log[M] -4): 69.5661% and 61.694% and 66.6796%
[3H]prazosin binding (α1AAR [3]; Nb29 Log[M] -5): 88.6049% and 105.399% and 83.0653%
[3H]prazosin binding (α1AAR [3]; Nb29 Log[M] -6): 111.871% and 107.935%
[3H]prazosin binding (α1AAR [3]; Nb29 Log[M] -7): 113.212% and 110.763% and 99.0136%
[3H]prazosin binding (α1AAR [3]; Nb29 Log[M] -8): 94.5235% and 106.273% and 100.209%
[3H]prazosin binding (α1AAR [3]; Nb29 Log[M] -9): 103.737% and 106.273%
[3H]prazosin binding (α1AAR [3]; Nb29 Log[M] -10): 99.4509% and 97.7015% and 89.1005%
pKi (α1AAR [3]; Nb29 as competitor): 4.39 ± 0.40
